Measured values from US12460006B2, “Antibodies against integrin alpha 11 beta 1” (Momenta Pharmaceuticals, Inc., priority 2019, dated 2025).
Changes are numbered by the printed parent chain.

T1: α11β1 I Domain (Homo sapiens, UniProt Q9UKX5)
T1 sequence (Q9UKX5 164-345 limits assumed): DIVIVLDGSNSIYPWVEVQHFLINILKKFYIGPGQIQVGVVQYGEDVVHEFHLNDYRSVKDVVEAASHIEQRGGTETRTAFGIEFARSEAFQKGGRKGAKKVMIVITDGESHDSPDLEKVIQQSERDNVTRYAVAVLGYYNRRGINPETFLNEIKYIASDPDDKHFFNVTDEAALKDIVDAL

B1: 1994_01_C07: fully human anti-α11β1 mAb (phage display); HCDR3 SEQ ID NO: 267, LCDR3 SEQ ID NO: 271 (antibody, V domains shown)
VH: QVQLVQSGAEVKKPGASVKVSCKASGYTFTSYGISWVRQAPGQGLEWMGWISAYNGNTNYAQKLQGRVTMTTDTSTSTAYMELRSLRSDDTAAYYCARVTGITGTTIDPWGQGTMVTVSS
VL: DIQMTQSPSSLSASVGDRVTITCRASQSISSYLNWYQQKPGKAPKLLIYDASSLESGVPSRFSGSGSGTEFTLTISSLQPDDFAVYYCQQYNNWPQTFGQGTKVEIK
B2: 1994_01_D12: fully human anti-α11β1 mAb (phage display); HCDR3 SEQ ID NO: 267, LCDR3 SEQ ID NO: 334 (antibody, V domains shown)
VH: B1 VH with A16S, D73N, A93V, M115L
VL: DIQMTQSPSSLSASVGDRVTITCRASQSISSYLNWYRQKPGKAPKLLIYAASSLQSGVPSRFSGSGSGTDFTLTISSLQPEDAATYYCQQYDSQSGTFGQGTKLEIK

Assays:
[1] = system: CHO-K1 cells expressing human α11; experiment: Cell adhesion inhibition (xCelligence), type I collagen; type: cell-based; conditions: CHO-K1 hu α11 cells; read-out: IC50 of blocking cell adhesion to type I collagen
Experimental: 0.6×10^6 cells/mL were incubated with each antibody at a range of concentrations for 20 minutes at 37° C. E-Plate VIEW 96 PET plate coated with 100 ng/mL type I collagen or PBS overnight at room temperature was blocked in 3% BSA for 1 house at room temperature. After washing the plate with PBS, cell and antibody mixture was added to the wells and the plate was places into an xCelligence machine. Cell adhesion was recorded over 6 hours. The time point of maximum cell adhesion was used for comparison relative to control.
A CHO-K1 hu α11 cell line was used to assess the ability of mAbs to block α11β1-mediated binding to type I collagen. […] In the “Untreated” condition, cells were plated on type I collagen but no antibody was added and in the “Uncoated” condition, cells were seeded onto BSA-coated wells containing no type I collagen. Statistics were performed using one-way ANOVA followed by Dunnett's multiple comparisons test. […] Therefore, it is possible that these mAbs bind on an α11β1 domain that keeps the integrin in a low or intermediate affinity state. […] Nine human mAbs were also tested for their ability to inhibit the binding of human CHO-α11 cells to type I collagen.

α11β1 I Domain = biological target: T1, α11β1 I Domain; experiment: SPR binding to α11β1 I Domain; conditions: SPR data
Experimental: (§1) The affinity of antibodies for human α11β1 was measured by surface plasmon resonance assay (SPR). Affinity was measured at pH 7.6 and 25° C. with a Biacore T200 instrument. Anti-HIS antibody was immobilized on the SPR sensor surface using EDC/NHS covalent attachment. HIS-tagged human α11β1 was captured on the sensor surface and a single-cycle kinetics assay was used. Increasing concentrations of test antibody were injected in series over the sensor-bound α11β1. Dissociation was monitored for 1000 seconds. A sensor surface with only anti-HIS antibody and a series of blank injections were used to double-reference subtract the data. A 1:1 Langmuir model was fit to the data to estimate the kinetic association and dissociation constants. The affinity (equilibrium dissociation constant) of the interaction was calculated by dividing the kinetic dissociation constant by the kinetic association constant. Between injection cycles α11β1 and bound antibody were removed with an injection of 10 mM glycine at pH 1.5.
(§2) The binding affinity of antibodies for the α11β1 Headpiece and α11β1 I Domain as measured by SPR is shown in FIG. 10A and FIG. 10B, respectively.

α11β1 Headpiece = experiment: SPR binding to α11β1 Headpiece; set-up: species or system human; conditions: SPR data
Experimental: as §1, §2

[2] = system: CHO cell lines expressing α11; experiment: Collagen gel contraction assay; type: cell-based, human; conditions: vs untreated
Experimental: 24-well plates were blocked with 2% BSA in PBS overnight at 37° C. The following day, the plates were washed 3 times with PBS before being used in the assay. Human CHO cell lines expressing α11 were harvested and resuspended at 1.25×10^6 in ExpiCHO Expression Medium (Gibco™ Cat #A2910002). The collagen gel solution was prepared by diluting 3 mg/mL stock collagen type I (Gibco™ Collagen I Rat Protein, Tail Cat #A1048301) to 1 mg/mL in the media containing the CHO cells. Sodium hydroxide was added to the solution to neutralize the pH and 400 μL of the collagen solution was added to each well of the 24-well plates. For the wells where the antibodies were included in the collagen gel solution, CHO cells were prepared at 2.5×10^6 and the antibodies were prepared at 2× final concentration in ExpiCHO media. The cells and antibodies were then combined 1:1 before the addition of the stock collagen type 1. The gels were allowed to polymerize for 60 minutes at 37° C. Antibodies were added to the ExpiCHO media, which was then layered on top of the polymerized gel (400 μL/well). The gels were incubated for 6 days at 37° C. before gel contraction was quantified. Images of each well were analyzed using Image J and gel contraction was determined as a percentage of the initial gel area.
Selected exemplary antibodies were tested for the ability to inhibit cell-mediated 3D gel contraction because this ability is directly linked to the functionality of the exemplary antibodies.

| Molecule | IC50 [1] [nM] | binding to the I domain of α11β1 (α11β1 I Domain) | binding to the headpiece domain of α11β1 (α11β1 Headpiece) | inhibition of CHO-hu α11-mediated collagen gel contraction [2] |
| --- | --- | --- | --- | --- |
| B1 | 3.3 | do not bind | do not bind | inhibited CHO-hu α11-mediated collagen gel contraction |
| B2 |  |  |  | inhibited CHO-hu α11-mediated collagen gel contraction |
